From article PMC7914964, “Ca^2+-Dependent Protein Kinase 6 Enhances KAT2 Shaker Channel Activity in Arabidopsis thaliana” (International Journal of Molecular Sciences, 2021)

Target: KAT2-CFP (Arabidopsis thaliana, UniProt Q38849 1-697)
Experiment: cell-based or functional assay

KAT2-CFP, sequence (Q38849 whole entry): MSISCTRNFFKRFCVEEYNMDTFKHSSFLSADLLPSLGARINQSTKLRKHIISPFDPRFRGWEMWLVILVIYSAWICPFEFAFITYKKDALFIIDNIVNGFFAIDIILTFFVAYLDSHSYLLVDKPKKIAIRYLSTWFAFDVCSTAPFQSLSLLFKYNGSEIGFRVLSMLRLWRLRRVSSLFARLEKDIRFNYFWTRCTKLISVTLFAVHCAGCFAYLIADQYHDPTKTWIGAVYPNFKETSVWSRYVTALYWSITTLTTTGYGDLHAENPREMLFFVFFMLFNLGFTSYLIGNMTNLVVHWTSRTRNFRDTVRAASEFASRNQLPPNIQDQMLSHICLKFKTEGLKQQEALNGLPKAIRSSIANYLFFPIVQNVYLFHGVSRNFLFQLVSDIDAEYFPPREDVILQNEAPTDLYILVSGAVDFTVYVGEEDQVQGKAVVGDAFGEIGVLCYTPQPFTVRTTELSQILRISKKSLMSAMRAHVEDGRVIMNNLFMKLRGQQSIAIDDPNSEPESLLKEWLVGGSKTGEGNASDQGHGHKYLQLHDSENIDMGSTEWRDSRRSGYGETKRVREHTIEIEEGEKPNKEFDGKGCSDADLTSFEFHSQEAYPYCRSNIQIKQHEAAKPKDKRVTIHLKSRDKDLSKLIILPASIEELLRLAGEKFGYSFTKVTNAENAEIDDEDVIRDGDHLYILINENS

KAT2 currents at hyperpolarized potentials (TEVC) in Xenopus laevis oocytes co-expressing KAT2 and AtCPK6, against KAT2 alone: 2 fold
B1: AtCPK6-YFP (enzyme, Arabidopsis thaliana, UniProt Q38872 1-544, looked up)
chain: MGNSCRGSFKDKIYEGNHSRPEENSKSTTTTVSSVHSPTTDQDFSKQNTNPALVIPVKEPIMRRNVDNQSYYVLGHKTPNIRDLYTLSRKLGQGQFGTTYLCTDIATGVDYACKSISKRKLISKEDVEDVRREIQIMHHLAGHKNIVTIKGAYEDPLYVHIVMELCAGGELFDRIIHRGHYSERKAAELTKIIVGVVEACHSLGVMHRDLKPENFLLVNKDDDFSLKAIDFGLSVFFKPGQIFKDVVGSPYYVAPEVLLKHYGPEADVWTAGVILYILLSGVPPFWAETQQGIFDAVLKGYIDFDTDPWPVISDSAKDLIRKMLCSSPSERLTAHEVLRHPWICENGVAPDRALDPAVLSRLKQFSAMNKLKKMALKVIAESLSEEEIAGLRAMFEAMDTDNSGAITFDELKAGLRRYGSTLKDTEIRDLMEAADVDNSGTIDYSEFIAATIHLNKLEREEHLVSAFQYFDKDGSGYITIDELQQSCIEHGMTDVFLEDIIKEVDQDNDGRIDYEEFVAMMQKGNAGVGRRTMKNSLNISMRDV
